{"source": "paper PMC6842113", "origin": "cited, not measured here", "target": "PSD-95 PDZ3-SH3-GK (Homo sapiens) (UniProt P78352)", "data": [{"substance": "SynGAP C-terminus (from UniProt Q9QUH6)", "values": [{"measurement": "Kd", "result": 200, "unit": "nM"}]}]}
